Common to all, as to conditions: parent: 1; read off a plot
In assay [1] the target is GAP1, endogenous. The experiment in a line: IgG pulldown of TAP-tagged REH2, western blot quantification. (In general: Immunoblotting shows a protein as a band on a membrane.)
Assay [2] has as its target GAP1, endogenous. The experiment in a line: IgG pulldown of TAP-tagged H2F1, western blot quantification.
Assay [3] deals with REH2-Associated Factor 1 (^H2F1), endogenous (UniProt Q585P3). The description is as above.
Chain of REH2-Associated Factor 1 (^H2F1), endogenous (Q585P3 23-524): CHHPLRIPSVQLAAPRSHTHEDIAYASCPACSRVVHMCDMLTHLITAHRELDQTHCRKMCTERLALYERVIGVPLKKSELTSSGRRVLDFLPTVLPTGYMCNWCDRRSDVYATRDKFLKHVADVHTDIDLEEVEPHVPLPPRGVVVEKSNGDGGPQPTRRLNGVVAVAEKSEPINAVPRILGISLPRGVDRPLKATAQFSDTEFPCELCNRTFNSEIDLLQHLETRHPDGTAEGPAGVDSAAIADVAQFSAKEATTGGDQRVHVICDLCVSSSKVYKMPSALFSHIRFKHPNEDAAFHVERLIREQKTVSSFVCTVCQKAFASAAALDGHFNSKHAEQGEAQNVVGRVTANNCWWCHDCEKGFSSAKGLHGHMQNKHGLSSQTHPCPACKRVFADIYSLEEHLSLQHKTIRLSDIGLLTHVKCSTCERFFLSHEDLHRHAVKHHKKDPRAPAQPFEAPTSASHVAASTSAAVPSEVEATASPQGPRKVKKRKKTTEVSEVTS
Assay [4] concerns the target RNA Editing Helicase 2 (REH2), endogenous (UniProt Q581T1). Described as above.
Assay [5] addresses REL1 ligase, endogenous (UniProt P86927). The experiment in a line: IgG pulldown of TAP-tagged H2F1, self-adenylation reaction quantification.

Chain of ^H2F1 wild type with TAP tag (from UniProt Q585P3) Z5 R/K>A (Q585P3 23-524, change not shown): as the sequence (Q585P3 23-524) above
Chain of ^H2F1 wild type with TAP tag (from UniProt Q585P3) Z2 R/K>A (Q585P3 23-524, change not shown): as the sequence (Q585P3 23-524) above
Chain of ^H2F1 wild type with TAP tag (from UniProt Q585P3) Z1 R/K>A (Q585P3 23-524, change not shown): as the sequence (Q585P3 23-524) above
Chain of ^H2F1 wild type with TAP tag (from UniProt Q585P3) Z3 R/K>A (Q585P3 23-524, change not shown): as the sequence (Q585P3 23-524) above

As for “RNA Editing Helicase 2 (REH2) wild type with TAP tag (from UniProt Q581T1) R2023A”, in assay [1], the ratio to parent amounted to 0.66.

With “^H2F1 wild type with TAP tag (from UniProt Q585P3) Z5 R/K>A”, the ratio to parent in assay [2] stood at 0.99; in assay [3], 1; in assay [4], 0.97; in assay [5], 0.77.

For “^H2F1 wild type with TAP tag (from UniProt Q585P3) Z2 R/K>A”, the ratio to parent turned out to be 0.95 in assay [2], 0.83 in assay [3], 0.78 in assay [4] and 0.83 in assay [5].

In the case of “^H2F1 wild type with TAP tag (from UniProt Q585P3) Z3 R/K>A”, the ratio to parent in assay [2] stood at 1; in assay [3], 1.2; in assay [4] it was 0.85; in assay [5], 0.62.

As for “RNA Editing Helicase 2 (REH2) wild type with TAP tag (from UniProt Q581T1) K1078A; A1086D”, the ratio to parent in assay [1] amounted to 0.17.

For “RNA Editing Helicase 2 (REH2) wild type with TAP tag (from UniProt Q581T1) R1979A”, in assay [1], the ratio to parent was found to be 1.

In the case of “RNA Editing Helicase 2 (REH2) wild type with TAP tag (from UniProt Q581T1) H1998E”, in assay [1], the ratio to parent worked out at 0.52.

On to “^H2F1 wild type with TAP tag (from UniProt Q585P3) Z1 R/K>A”, for which the ratio to parent stood at 0.85 in assay [2], 0.87 in assay [3], 0.75 in assay [4] and 0.72 in assay [5].

(Values after paper PMC6488192 (2019).)
